These results are taken from patent EP4793287A1, “TUMOR MICROENVIRONMENT SPECIFICALLY ACTIVATED CD47 ANTIBODY” (Affinity (Shanghai) Biopharmaceutical Co., Ltd., priority 2023, dated 2025).

Usually EC50 stands for the midpoint of the concentration-response curve. By Kd is commonly meant the concentration at which binding is half-saturated. The low end stands for higher affinity, the high end for lower affinity. Usually koff stands for the first-order rate constant of dissociation. The low end stands for slow dissociation, the high end for fast dissociation. Usually kon stands for a measure of how fast the partners come together.

Substitutions are numbered along the chain they refer to. Names may count otherwise.

To fix the notation:
B1: 70H1-VH2VL2 (antibody, V domains shown)
VH: QQQLVESGGGVVQPGGSLRLSCAASGFTFSSGYDMCWVRQAPGKGLEWIACIYTRSSGGTYYASWAKGRFTISKDNSKNTLYLQMNSLRAEDTAVYYCAKGRSSYRLNLWGQGTLVTVSS
VL: DIQMTQSPSTLSASVGDRVTIKCQASQSISNELSWYQQKPGKAPKLLIYRASTLESGVSSRFSGSGSGTEFTLTISSLQPDDFATYYCQSTFYGDYGNAFGGGTKVEIK
notes: Humanized 70H1
B2: 70H1-VH2VL3 (antibody, V domains shown)
VH: B1 VH
VL: B1 VL with A43P
notes: Humanized 70H1
B3: 70H1-VH3VL2 (antibody, V domains shown)
VH: B1 VH with T28S, Y97F
VL: B1 VL
notes: Humanized 70H1
B4: 70H1-VH2VL1 (antibody, V domains shown)
VH: B1 VH
VL: B1 VL with K22T, S59P
notes: Humanized 70H1
B5: 70H1-VH3VL3 (antibody, V domains shown)
VH: B1 VH with T28S, Y97F
VL: B1 VL with A43P
notes: Humanized 70H1
B6: 70H1-VH1VL3 (antibody, V domains shown)
VH: B1 VH with Q2V, I49V, A50S, K74R
VL: B1 VL with A43P
notes: Humanized 70H1
B7: 70H1-VH1VL1 (antibody, V domains shown)
VH: B1 VH with Q2V, I49V, A50S, K74R
VL: B1 VL with K22T, S59P
notes: Humanized 70H1
B8: 70H1-VH3VL1 (antibody, V domains shown)
VH: B1 VH with T28S, Y97F
VL: B1 VL with K22T, S59P
notes: Humanized 70H1, the final preferred antibody
B9: 70H1 (antibody, V domains shown)
VH: QQQLEESGGGLVKPEGSLTLTCTASGFSFSSGYDMCWVRQAPGRGLEWIACIYTRSSGGTYYASWAKGRFTISKTSSTVDLRMTSLTAADTATYFCAGGRSSYRLNLWGQGALVTVSS
VL: DVVMTQTPSPVEAAVGGTVTIKCQASQSISNELSWYQQKPGQPPKLLIYRASTLESGVSSRFKGSGSGTEFTLTISDLECADAATYYCQSTFYGDYGNAFGGGTEVVVK
notes: Rabbit-derived variable regions; also called 70H1.IgG1; 70H1 antibody
B10: 70H1.IgG1.Y61C (antibody, V domains shown)
VH: B9 VH with Y61C
VL: B9 VL
notes: IgG1; also called 70H1 IgG1-mutation; 70H1 mutant VH-61 (Y-C)
B11: CD47 TMEAbody activated (antibody, IgG1, V domains shown)
VH: B9 VH with Y61C
VL: B9 VL
modifications: Cys 61 (Y61C): 20K PEG blocker cleaved off by legumain (asparaginyl endopeptidase); what remains on the Cys is not stated
notes: The CD47 TMEAbody after treatment with legumain / asparaginyl endopeptidase; IgG1
B12: CD47 TMEAbody (70H1.IgG1.Y61C + 20K PEG) (antibody, V domains shown)
VH: B9 VH with Y61C
VL: B9 VL
modifications: Cys 61 (Y61C) conjugated with PEG of approximately 20K molecular weight (blocker, cleavable by legumain)
notes: IgG1; The same question of backbone applies as for 70H1.IgG1.Y61C; also called 70H1 TMEAbody; 70H1; IgG1 + 20K PEG
B13: 71D6 (antibody, V domains shown)
VH: QSLEESGGDLVKPGASLTLTCTASGFSFSTSYWIYWVRQAPGKGLELIACIATGSDGSTYYASWASGRFTISKTSSTTVTLQMTSLTAADTATYFCAREAGNGVYNLWGQGTLVTVSS
VL: AYDMTQTPASVEVAVGGTVTIKCQASESIRNALAWYQQKPGQPPKLLISGASKLASGVASRFKGSGSATEFTLTISDLECADAATYYCQQYYSSSNVDNGFGGGTEVVVK
notes: Recombinant rabbit monoclonal antibody expressed in Expi293; it was detected with anti-human IgG Fc
B14: 69F12 (antibody, V domains shown)
VH: QSVEESEGGLFKPTDTLTLTCTISGFSLSNYDMIWVRQAPGNGLEYIGIISSRDKAGHAAWAKRRSTITRNPKENTVTLKMTSLTVADTATYFCARRFSSMHGLDIWGPGTLVTVSS
VL: AYDMTQTPSSVSAAVGGTVTIKCQASQSISNYLSWYQQKPGQPPKLLIYLASTLASGVPSRFKGSGSGTQFTLTISGVQCADAATYYCQQGYSSDSVDNVFGGGTEVVVK
notes: as for B13
B15: 70G1 (antibody, V domains shown)
VH: QSVKESEGGLFKPTDTLTLTCTVSGFSLSNYAINWVRQAPGNGLEWIGIINGYGMTYYASWAKSRSTITRNTSENTVTLKLTSLTAADTATYFCARDRYGSYVGYSSDIWGPGTLVTVSS
VL: AYDMTQTPASVEAAVGGTVTIKCQASQNISSRLAWYQQKPGQPPKLLIYGTSTLASGVPSRFRGSGSGTQFSLTISDLECADAATYYCQHGYYYSSSFTTYNAFGGGTEVVVK
notes: as for B13
B16: 74F1 (antibody, V domains shown)
VH: B9 VH with G10D, G32R, D34N, R44K, R55G, G59S, R82K, R100S, S101Y, A112T
VL: B9 VL with S9A, P10S, E12S, A13T, K63S, S90A, F92G, Y96F
notes: as for B13
B17: 70H1 mutant VH-33 Y to C (antibody, V domains shown)
VH: B9 VH with Y33C
VL: B9 VL
B18: 70H1 mutant VL-53 T to C (antibody, V domains shown)
VH: B9 VH
VL: B9 VL with T53C
B19: 70H1 mutant VL-98 N to C (antibody, V domains shown)
VH: B9 VH
VL: B9 VL with N98C
B20: 70H1 mutant VL-27 Q to C (antibody, V domains shown)
VH: B9 VH
VL: B9 VL with Q27C
B21: 70H1 mutant VL-92 F to C (antibody, V domains shown)
VH: B9 VH
VL: B9 VL with F92C
B22: 70H1 mutant VL-96 Y to C (antibody, V domains shown)
VH: B9 VH
VL: B9 VL with Y96C
B23: 70H1 mutant VH-55 R to C (antibody, V domains shown)
VH: B9 VH with R55C
VL: B9 VL
B24: 70H1 mutant VH-65 W to C (antibody, V domains shown)
VH: B9 VH with W65C
VL: B9 VL
B25: 70H1 mutant VL-93 Y to C (antibody, V domains shown)
VH: B9 VH
VL: B9 VL with Y93C
B26: 70H1 mutant VL-49 Y to C (antibody, V domains shown)
VH: B9 VH
VL: B9 VL with Y49C

antibody antigen (CD47) coated in the ELISA of Example 3, sequence (Q08722 19-139 limits assumed): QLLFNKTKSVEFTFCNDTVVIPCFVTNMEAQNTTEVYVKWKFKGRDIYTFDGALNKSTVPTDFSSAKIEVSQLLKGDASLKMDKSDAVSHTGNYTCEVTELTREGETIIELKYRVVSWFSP
T1 sequence (Q08722 19-323 limits assumed): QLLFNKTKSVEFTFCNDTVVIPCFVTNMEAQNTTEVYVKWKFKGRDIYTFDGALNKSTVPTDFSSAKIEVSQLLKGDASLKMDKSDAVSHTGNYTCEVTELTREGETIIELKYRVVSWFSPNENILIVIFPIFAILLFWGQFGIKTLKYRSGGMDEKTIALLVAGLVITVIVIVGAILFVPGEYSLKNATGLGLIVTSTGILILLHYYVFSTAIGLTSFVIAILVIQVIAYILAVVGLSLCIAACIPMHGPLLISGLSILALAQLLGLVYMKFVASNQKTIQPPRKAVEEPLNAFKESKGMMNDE
T4 sequence (Q08722 19-323): as the sequence (Q08722 19-323 limits assumed) above

The first assay has as its target T1, CD47 on CHOK1-CD47 cells (UniProt Q08722 19-323).
T1 construct: whole, on cells; The rabbits were immunized with human CD47, so human is likely
Put plainly: flow cytometry on CHOK1-CD47 cells.
On to B1, for which the EC50 was determined as 1.17 nM.
In turn, B2 yielded a half-maximal effective concentration (EC50) of 1.05 nM.
Same read-out and setting: in the case of B3 it was 0.64 nM.
Same read-out and setting: the result for B4 reads 1.09 nM.
The same measure, in the same setting: the result for B5 reads 1.01 nM; that for B6, 1.76 nM; that for B7, 1.04 nM.
As to B8, the EC50 was determined as 0.23 nM.
The same measure, in the same setting: in the case of B9 it was 0.35 nM.

The target in another assay is T1, CD47 on CHOK1-CD47 cells. Description: flow cytometry on CHOK1-CD47 cells. This is another data set of the same source. (In general: A flow cytometer gives signals particle by particle.)
B9: the EC50 is 0.38 nM.
The same measure, in the same setting: the result for B10 reads 0.39 nM.
Still for that read-out and setting: in the case of B11 it was 0.91 nM.
As to B12, the EC50 was 7.6 nM.

The target in a further assay is T2, Recombinant human CD47 protein (DIMA BIOTECH, Cat# PME-100008) (human, UniProt Q08722 19-139, limits assumed).
T2 construct: Bought protein, coated on ELISA plates; also called CD47 antigen
T2 sequence (Q08722 19-139 limits assumed): as the sequence (Q08722 19-139 limits assumed) above
Description: ELISA on coated recombinant human CD47. (In general: An ELISA detects its analyte on a solid surface through an enzyme-linked reagent.)
B12: the “fold weaker binding affinity compared to 70H1” value was around 7 fold.

A further assay concerns the target T1, CD47 on CHOK1-CD47 cells. Put plainly: flow cytometry on CHOK1-CD47 cells. This is another data set of the same source.
B13 displayed an EC50 of 3.8 nM.
Same read-out and setting: in the case of B14 it was 0.8 nM; in that of B15, 2.88 nM; in that of B9, 0.91 nM.
Molecule B16 showed a concentration for a half-maximal effect (EC50) of 2.82 nM.
Regarding B12, the “fold lower binding compared to 70H1” value was around 20 fold.

Another assay concerns the target antibody antigen (CD47) coated in the ELISA of Example 3 (UniProt Q08722). Description: ELISA on coated antigen, ratio against wild-type 70H1.
Regarding B17, the Mutant Binding Strength (EC50 post-mutation / EC50 wild-type) was 1.
The same measure, in the same setting: the result for B18 reads 1.
Turning to B19, the Mutant Binding Strength (EC50 post-mutation / EC50 wild-type) worked out at 1.
The same measure, in the same setting: in the case of B20 it was 1; in that of B21, 1.3; in that of B22, 1.
Same read-out and setting: the result for B23 reads 1; that for B24, 0.8.
The same measure, in the same setting: in the case of B10 it was 1; in that of B25, 1; in that of B26, 0.9.

The target in the next assay is T3, human CD47 antigen (immobilized on CM5 chip, Biacore) (human, UniProt Q08722 19-139, limits assumed). Description: SPR (Biacore T200).
T3 sequence (Q08722 19-139 limits assumed): as above
On to B12, for which the “fold decrease of affinity compared to 70H1” value is 470 fold.

Another assay concerns the target T2, Recombinant human CD47 protein (DIMA …). Description: ELISA on coated recombinant human CD47. This is another data set of the same source.
In the case of B9, the EC50 is 0.12 nM.
On the same count and under the same terms, the result for B10 reads 0.07 nM; that for B11, 0.15 nM.
The same measure, in the same setting: the result for B12 reads 0.72 nM.

Another assay concerns the target T4, CD47 on Raji cells (human, UniProt Q08722 19-323).
T4 construct: whole, on cells
Description: flow cytometry on Raji cells.
With B10, a half-maximal effect (EC50) was put at 0.47 nM.
The same measure, in the same setting: in the case of B11 it was 0.24 nM.
Same read-out and setting: in the case of B12 it was 31.9 nM.

In the next assay the target is T4, CD47 on Raji cells. Put plainly: flow cytometry on Raji cells. This is another data set of the same source.
For the molecule B12, the “fold lower binding compared to 70H1” value is around 60 fold.

The target in another assay is T3, human CD47 antigen (immobilized on CM5 …). Put plainly: SPR (Biacore T200), CD47 antigen on CM5 chip, antibody as analyte, 1:1 model. (In SPR one partner is held on a chip, and binding of the other changes the refractive index at the surface.)
For B9, the Kd was 0.0308 nM, the koff worked out at 0.00014 s⁻¹ and the on-rate (kon) was determined as 4.54e+06 M⁻¹ s⁻¹.
For B12 the same measures were 14.1 nM, 0.000343 s⁻¹ and 24400 M⁻¹ s⁻¹.
